Experimental data: article PMC5383425, “Differential CLE peptide perception by plant receptors implicated from structural and functional analyses of TDIF-TDR interactions” (PLoS ONE, 2017)
Positions count from the first letter of the chain named. Square brackets hold non-standard residues; d marks the D form. Ends that are not written are not given here. Hyp = O=C(O)[C@@H]1C[C@@H](O)CN1

Tests used:
Assay in all cases: ITC
[1] = biological target: T1, ecdTDR F279 alanine mutant (Arabidopsis thaliana, UniProt Q9FII5 30-642, alanine substitution of F279)
T1 sequence: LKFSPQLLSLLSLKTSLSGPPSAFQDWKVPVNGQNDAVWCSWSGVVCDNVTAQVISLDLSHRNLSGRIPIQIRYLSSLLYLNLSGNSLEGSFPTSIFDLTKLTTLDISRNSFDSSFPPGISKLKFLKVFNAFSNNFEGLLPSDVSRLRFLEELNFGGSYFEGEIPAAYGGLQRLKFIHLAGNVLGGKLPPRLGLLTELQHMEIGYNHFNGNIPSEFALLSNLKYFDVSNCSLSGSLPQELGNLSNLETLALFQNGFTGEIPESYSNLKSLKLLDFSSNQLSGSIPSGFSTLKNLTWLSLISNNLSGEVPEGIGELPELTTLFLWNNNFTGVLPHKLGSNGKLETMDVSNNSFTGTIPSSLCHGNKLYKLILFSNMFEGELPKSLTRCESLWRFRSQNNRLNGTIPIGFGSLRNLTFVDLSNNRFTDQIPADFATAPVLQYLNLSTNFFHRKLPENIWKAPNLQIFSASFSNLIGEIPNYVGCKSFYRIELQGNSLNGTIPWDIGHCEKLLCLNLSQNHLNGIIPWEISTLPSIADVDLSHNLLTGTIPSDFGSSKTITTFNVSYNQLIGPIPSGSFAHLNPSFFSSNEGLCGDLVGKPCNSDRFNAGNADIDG

[2] = biological target: T2, ecdTDR F279/F281 double alanine mutant (Arabidopsis thaliana, UniProt Q9FII5 30-642, F279 to alanine | F281 to alanine)
T2 sequence: T1 sequence with F252A

[3] = biological target: T3, ecdTDR mutant with all five N-terminal anchoring site-binding residues replaced by alanine (Arabidopsis thaliana, UniProt Q9FII5 30-642)
T3 chain: T1 sequence with R109A, F132A, S133A, S158A, Y159A, A250F

[4] = biological target: T4, ecdTDR F281 alanine mutant (Arabidopsis thaliana, UniProt Q9FII5 30-642, alanine substitution of F281)
T4 sequence: T1 sequence with A250F, F252A

B1: Tracheary Element Differentiation Inhibitory Factor (TDIF) peptide (peptide)
peptide: HEV[Hyp]SG[Hyp]NPISN
notes: TDIF, the 12-residue CLE peptide processed from CLE41 and CLE44 of A. thaliana; printed as HEV(Hyp)SG(Hyp)NPISN; numbers count on: the 12-residue peptide; CLE44 encodes the same peptide; also called wild type TDIF; wtTDIF; source: synthetic peptide (peptide 2.0)
Question: Which Kd [1] does the source give for B1 here?
Answer: 307 nM

Question: What about the Kd [2] of the same binder?
Answer: 887 nM

Question: What about the Kd [3] of the same binder?
Answer: 3240 nM

Question: And the Kd [4]?
Answer: 787 nM
